B1: Kinetochore protein NDC80 homolog (Homo sapiens), O14777 (parent)
chain: MKRSSVSSGGAGRLSMQELRSQDVNKQGLYTPQTKEKPTFGKLSINKPTSERKVSLFGKRTSGHGSRNSQLGIFSSSEKIKDPRPLNDKAFIQQCIRQLCEFLTENGYAHNVSMKSLQAPSVKDFLKIFTFLYGFLCPSYELPDTKFEEEVPRIFKDLGYPFALSKSSMYTVGAPHTWPHIVAALVWLIDCIKIHTAMKESSPLFDDGQPWGEETEDGIMHNKLFLDYTIKCYESFMSGADSFDEMNAELQSKLKDLFNVDAFKLESLEAKNRALNEQIARLEQEREKEPNRLESLRKLKASLQGDVQKYQAYMSNLESHSAILDQKLNGLNEEIARVELECETIKQENTRLQNIIDNQKYSVADIERINHERNELQQTINKLTKDLEAEQQKLWNEELKYARGKEAIETQLAEYHKLARKLKLIPKGAENSKGYDFEIKFNPEAGANCLVKYRAQVYVPLKELLNETEEEINKALNKKMGLEDTLEQLNAMITESKRSVRTLKEEVQKLDDLYQQKIKEAEEEDEKCASELESLEKHKHLLESTVNQGLSEAMNELDAVQREYQLVVQTTTEERRKVGNNLQRLLEMVATHVGSVEKHLEEQIAKVDREYEECMSEDLSENIKEIRDKYEKKATLIKSSEE
B2: Ligand of Numb protein X 2 (Homo sapiens), Q8N448 (parent)
chain: MGTTSDEMVSVEQTSSSSLNPLCFECGQQHWTRENHLYNYQNEVDDDLVCHICLQPLLQPLDTPCGHTFCYKCLRNFLQEKDFCPLDRKRLHFKLCKKSSILVHKLLDKLLVLCPFSSVCKDVMQRCDLEAHLKNRCPGASHRRVALERRKTSRTQAEIENENGPTLLDPAGTLSPEADCLGTGAVPVERHLTSASLSTWSEEPGLDNPAFEESAGADTTQQPLSLPEGEITTIEIHRSNPYIQLGISIVGGNETPLINIVIQEVYRDGVIARDGRLLAGDQILQVNNYNISNVSHNYARAVLSQPCNTLHLTVLRERRFGNRAHNHSDSNSPREEIFQVALHKRDSGEQLGIKLVRRTDEPGVFILDLLEGGLAAQDGRLSSNDRVLAINGHDLKYGTPELAAQIIQASGERVNLTIARPGKPQPGNTIREAGNHSSSSQHHTPPPYYSRPSSHKDLTQCVTCQEKHITVKKEPHESLGMTVAGGRGSKSGELPIFVTSVPPHGCLARDGRIKRGDVLLNINGIDLTNLSHSEAVAMLKASAASPAVALKALEVQIVEEATQNAEEQPSTFSENEYDASWSPSWVMWLGLPSTLHSCHDIVLRRSYLGSWGFSIVGGYEENHTNQPFFIKTIVLGTPAYYDGRLKCGDMIVAVNGLSTVGMSHSALVPMLKEQRNKVTLTVICWPGSLV
partner: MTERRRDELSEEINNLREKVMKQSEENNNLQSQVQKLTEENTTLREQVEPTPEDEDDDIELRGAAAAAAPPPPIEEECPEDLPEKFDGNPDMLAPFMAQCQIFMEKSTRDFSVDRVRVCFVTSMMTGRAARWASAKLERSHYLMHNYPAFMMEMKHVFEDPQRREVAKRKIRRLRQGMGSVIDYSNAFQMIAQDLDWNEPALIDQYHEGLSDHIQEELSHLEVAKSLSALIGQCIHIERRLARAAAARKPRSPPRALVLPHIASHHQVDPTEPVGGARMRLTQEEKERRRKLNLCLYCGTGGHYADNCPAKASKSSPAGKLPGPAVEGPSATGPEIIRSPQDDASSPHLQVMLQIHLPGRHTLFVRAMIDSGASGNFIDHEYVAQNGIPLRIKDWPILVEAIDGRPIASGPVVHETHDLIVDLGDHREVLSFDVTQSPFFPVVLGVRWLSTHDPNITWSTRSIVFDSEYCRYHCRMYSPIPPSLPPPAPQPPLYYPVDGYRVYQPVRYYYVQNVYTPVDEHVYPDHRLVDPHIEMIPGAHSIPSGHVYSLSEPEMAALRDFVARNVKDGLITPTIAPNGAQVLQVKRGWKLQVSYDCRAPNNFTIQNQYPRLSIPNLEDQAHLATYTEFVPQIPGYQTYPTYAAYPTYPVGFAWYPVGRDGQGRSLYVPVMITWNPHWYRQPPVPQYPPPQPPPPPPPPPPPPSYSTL
B3: Regulator of G-protein signaling 20 (Homo sapiens), O76081 (parent)
chain: MPQLSQDNQECLQKHFSRPSIWTQFLPLFRAQRYNTDIHQITENEGDLRAVPDIKSFPPAQLPDSPAAPKLFGLLSSPLSSLARFFSHLLRRPPPEAPRRRLDFSPLLPALPAARLSRGHEELPGRLSLLLGAALALPGRPSGGRPLRPPHPVAKPREEDATAGQSSPMPQMGSERMEMRKRQMPAAQDTPGAAPGQPGAGSRGSNACCFCWCCCCSCSCLTVRNQEDQRPTIASHELRADLPTWEESPAPTLEEVNAWAQSFDKLMVTPAGRNAFREFLRTEFSEENMLFWMACEELKKEANKNIIEEKARIIYEDYISILSPKEVSLDSRVREVINRNMVEPSQHIFDDAQLQIYTLMHRDSYPRFMNSAVYKDLLQSLSEKSIEA
partner: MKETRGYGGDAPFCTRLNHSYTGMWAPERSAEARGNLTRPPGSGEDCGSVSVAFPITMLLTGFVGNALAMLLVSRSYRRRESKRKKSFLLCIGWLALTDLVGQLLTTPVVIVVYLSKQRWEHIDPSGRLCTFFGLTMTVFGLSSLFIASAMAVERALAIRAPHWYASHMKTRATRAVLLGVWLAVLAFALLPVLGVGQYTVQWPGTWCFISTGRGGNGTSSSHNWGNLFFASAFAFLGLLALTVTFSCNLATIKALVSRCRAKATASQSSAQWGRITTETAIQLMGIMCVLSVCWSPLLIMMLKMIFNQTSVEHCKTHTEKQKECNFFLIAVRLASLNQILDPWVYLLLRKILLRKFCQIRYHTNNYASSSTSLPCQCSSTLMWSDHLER

This note sets out measurements from IntAct's records for PubMed 31515488.

The variants in one experiment derive from B1. The conditions noted are these: with amol2_human AMOTL2, Q9Y2J4.
amol2_human AMOTL2, Q9Y2J4, sequence (Q9Y2J4 whole entry): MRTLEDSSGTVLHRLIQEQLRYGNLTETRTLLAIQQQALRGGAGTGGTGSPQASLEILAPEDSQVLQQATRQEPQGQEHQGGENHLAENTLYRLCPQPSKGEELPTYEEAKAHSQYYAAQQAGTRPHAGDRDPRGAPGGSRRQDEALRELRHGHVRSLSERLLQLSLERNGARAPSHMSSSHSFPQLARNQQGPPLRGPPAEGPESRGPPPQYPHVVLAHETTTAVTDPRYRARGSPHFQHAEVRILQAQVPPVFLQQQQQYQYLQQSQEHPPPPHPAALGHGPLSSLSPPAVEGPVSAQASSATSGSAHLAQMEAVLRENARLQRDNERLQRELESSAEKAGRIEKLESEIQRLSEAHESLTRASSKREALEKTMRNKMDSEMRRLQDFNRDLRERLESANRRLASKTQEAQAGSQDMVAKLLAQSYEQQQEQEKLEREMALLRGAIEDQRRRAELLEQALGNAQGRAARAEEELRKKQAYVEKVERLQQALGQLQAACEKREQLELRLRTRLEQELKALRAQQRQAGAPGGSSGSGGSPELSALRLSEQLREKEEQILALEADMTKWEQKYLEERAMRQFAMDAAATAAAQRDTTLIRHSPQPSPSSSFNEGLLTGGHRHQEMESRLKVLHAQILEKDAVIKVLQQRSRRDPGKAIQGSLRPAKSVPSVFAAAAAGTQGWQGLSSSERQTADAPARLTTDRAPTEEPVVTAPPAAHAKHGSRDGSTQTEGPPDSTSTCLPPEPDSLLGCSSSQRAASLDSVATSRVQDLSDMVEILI
Turning to S55P, the “effect of a mutation on the interaction” value is reported as “with no effect”.
Same read-out and setting: with A605P the entry was “with no effect”.

Another experiment covers variants of B1. The note with it: with txlna_human TXLNA.
In the case of S55P, the “effect of a mutation on the interaction” value was “with no effect”.
Take A605P: the “effect of a mutation on the interaction” value is given as “with no effect”.

The variants in another experiment derive from B1. The note with it: with atf4_human ATF4, P18848.
atf4_human ATF4, P18848, sequence (P18848 whole entry): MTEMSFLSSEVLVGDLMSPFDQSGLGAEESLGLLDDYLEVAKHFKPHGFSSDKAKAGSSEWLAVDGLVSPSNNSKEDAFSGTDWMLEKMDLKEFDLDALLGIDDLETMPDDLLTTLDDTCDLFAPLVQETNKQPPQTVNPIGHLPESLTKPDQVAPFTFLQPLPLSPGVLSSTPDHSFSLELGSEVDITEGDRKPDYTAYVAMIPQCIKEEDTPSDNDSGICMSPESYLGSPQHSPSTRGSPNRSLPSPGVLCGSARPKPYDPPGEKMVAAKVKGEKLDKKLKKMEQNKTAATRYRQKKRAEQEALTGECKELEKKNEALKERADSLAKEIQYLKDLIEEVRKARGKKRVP
As to S55P, the “effect of a mutation on the interaction” value is on record as “with no effect”.
Consider A605P, for which the “effect of a mutation on the interaction” value was “disrupting interaction strength”.

In the next experiment the parent is B1. The note with it: with tnip1_human TNIP1, Q15025.
tnip1_human TNIP1, Q15025, sequence (Q15025 whole entry): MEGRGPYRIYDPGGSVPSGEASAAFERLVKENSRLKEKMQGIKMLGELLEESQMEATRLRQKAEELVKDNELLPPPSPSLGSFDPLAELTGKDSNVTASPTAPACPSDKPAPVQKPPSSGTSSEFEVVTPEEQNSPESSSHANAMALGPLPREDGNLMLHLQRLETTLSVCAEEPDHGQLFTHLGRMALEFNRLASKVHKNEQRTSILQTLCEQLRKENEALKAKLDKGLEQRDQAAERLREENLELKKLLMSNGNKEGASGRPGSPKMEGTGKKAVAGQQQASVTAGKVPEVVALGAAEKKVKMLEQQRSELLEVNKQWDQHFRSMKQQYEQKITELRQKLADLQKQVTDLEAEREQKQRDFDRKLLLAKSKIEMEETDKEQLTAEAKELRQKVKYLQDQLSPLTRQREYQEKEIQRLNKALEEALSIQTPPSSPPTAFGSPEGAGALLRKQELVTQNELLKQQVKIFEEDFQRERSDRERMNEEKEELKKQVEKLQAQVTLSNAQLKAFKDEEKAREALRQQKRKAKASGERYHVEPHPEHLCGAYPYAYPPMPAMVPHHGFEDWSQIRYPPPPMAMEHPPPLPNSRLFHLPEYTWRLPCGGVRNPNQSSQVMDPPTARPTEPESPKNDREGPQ
As to S55P, the “effect of a mutation on the interaction” value is reported as “with no effect”.
Take A605P: the “effect of a mutation on the interaction” value is given as “disrupting interaction strength”.

The variants in the next experiment derive from B2. The note with it: with peg10_human PEG10, Q86TG7.
Consider V145I, for which the “effect of a mutation on the interaction” value is listed as “with no effect”.
Turning to T183I, the “effect of a mutation on the interaction” value is recorded as “with no effect”.

In a further experiment the parent is B3. The conditions noted are these: with pe2r3_human PTGER3, P43115.
Regarding H347Y, the “effect of a mutation on the interaction” value is reported as “with no effect”.
